# In US20260028424A1 (GRANULAR THERAPEUTICS, published 2026):
# B1: anti-CD203c 1.27 IgG (parental clone, MH1 common light chain) (antibody, V domains shown)
# VH: EVQLVQSGAEVKKPGESLKISCKGSGYRFTSYWIGWVRQMPGKGLEWMGIIYPGDSDTRYSPSFQGQVTISADKSISTAYLQWSSLKASDTAMYYCARKDYYYYAMDVWGQGTTVTVSS
# VL: DIQMTQSPSSLSASVGDRVTITCRASQGIRTNLAWFQQKPGKAPKSLIYAASSLQSGVPSRFSGSGSGTDFTLTISSLQPEDFATYYCQQYNSYPRTFGGGTKVEIK
# notes: IgG1null (human IgG1 with L234A, L235A, G237A) and human Ckappa
# How the values were obtained:
# [1] = molecular target: T1, human CD203c expressed on the surface of KU812 cells (human, UniProt O14638 1-875); assay: flow cytometry on KU812 cells
# T1 construct: whole, on cells; also called cell-surface CD203c; cell surface CD203c on KU812 cells
# T1 sequence (looked up): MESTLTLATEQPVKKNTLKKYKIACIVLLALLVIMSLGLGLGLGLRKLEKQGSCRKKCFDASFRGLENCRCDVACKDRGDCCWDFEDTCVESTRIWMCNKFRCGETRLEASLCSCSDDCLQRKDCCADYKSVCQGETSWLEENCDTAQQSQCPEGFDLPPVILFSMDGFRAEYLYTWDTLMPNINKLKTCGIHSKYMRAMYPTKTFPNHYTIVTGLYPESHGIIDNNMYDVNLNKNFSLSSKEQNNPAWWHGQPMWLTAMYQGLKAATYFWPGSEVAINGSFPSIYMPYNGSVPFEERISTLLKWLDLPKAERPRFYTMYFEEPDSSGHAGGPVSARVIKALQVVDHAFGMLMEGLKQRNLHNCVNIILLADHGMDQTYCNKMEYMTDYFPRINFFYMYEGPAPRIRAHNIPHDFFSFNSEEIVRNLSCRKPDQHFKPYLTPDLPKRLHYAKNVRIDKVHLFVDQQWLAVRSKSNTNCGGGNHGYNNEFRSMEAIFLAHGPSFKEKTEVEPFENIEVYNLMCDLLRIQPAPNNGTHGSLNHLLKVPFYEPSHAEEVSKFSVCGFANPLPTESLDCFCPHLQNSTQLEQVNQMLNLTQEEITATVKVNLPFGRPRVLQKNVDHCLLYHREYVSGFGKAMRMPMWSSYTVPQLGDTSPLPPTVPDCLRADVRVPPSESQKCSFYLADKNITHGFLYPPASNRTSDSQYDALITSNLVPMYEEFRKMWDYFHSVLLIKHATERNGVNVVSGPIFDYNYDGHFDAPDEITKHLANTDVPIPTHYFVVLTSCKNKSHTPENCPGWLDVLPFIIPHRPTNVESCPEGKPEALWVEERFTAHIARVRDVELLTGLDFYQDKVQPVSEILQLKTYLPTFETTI
# Description: All treatments were performed on cells seeded in T75 flasks at a seeding density of 0.3e6/ml. Cells were cultured in the presence of 80 ng/ml of SCF and treated with 20 ng/ml of IL3 24 hours prior to antibody staining. Following SCF/IL3 treatment, cells were harvested and stained with live dead stain (Zombie UV Biolegend 423108). Cells were then stained with a titration of anti-CD203c antibodies/bispecifics or respective isotype controls in a 5-fold dilution series starting at 50 μg/mL and detected with Anti human-Fc AF647 antibody (JIR 109-605-098). Samples were subsequently run on a Yeti analyzer, gating on 10K live cells. Subsequent analysis was performed using FlowJo software and data represented as MFI (median fluorescent intensity).
# [2] = molecular target: T2, human CD203c His-tagged recombinant protein (human, UniProt O14638 49-875, limits assumed); assay: direct binding ELISA on coated recombinant human CD203c
# T2 construct: also called ENPP3; not shown: His tag
# T2 sequence (looked up): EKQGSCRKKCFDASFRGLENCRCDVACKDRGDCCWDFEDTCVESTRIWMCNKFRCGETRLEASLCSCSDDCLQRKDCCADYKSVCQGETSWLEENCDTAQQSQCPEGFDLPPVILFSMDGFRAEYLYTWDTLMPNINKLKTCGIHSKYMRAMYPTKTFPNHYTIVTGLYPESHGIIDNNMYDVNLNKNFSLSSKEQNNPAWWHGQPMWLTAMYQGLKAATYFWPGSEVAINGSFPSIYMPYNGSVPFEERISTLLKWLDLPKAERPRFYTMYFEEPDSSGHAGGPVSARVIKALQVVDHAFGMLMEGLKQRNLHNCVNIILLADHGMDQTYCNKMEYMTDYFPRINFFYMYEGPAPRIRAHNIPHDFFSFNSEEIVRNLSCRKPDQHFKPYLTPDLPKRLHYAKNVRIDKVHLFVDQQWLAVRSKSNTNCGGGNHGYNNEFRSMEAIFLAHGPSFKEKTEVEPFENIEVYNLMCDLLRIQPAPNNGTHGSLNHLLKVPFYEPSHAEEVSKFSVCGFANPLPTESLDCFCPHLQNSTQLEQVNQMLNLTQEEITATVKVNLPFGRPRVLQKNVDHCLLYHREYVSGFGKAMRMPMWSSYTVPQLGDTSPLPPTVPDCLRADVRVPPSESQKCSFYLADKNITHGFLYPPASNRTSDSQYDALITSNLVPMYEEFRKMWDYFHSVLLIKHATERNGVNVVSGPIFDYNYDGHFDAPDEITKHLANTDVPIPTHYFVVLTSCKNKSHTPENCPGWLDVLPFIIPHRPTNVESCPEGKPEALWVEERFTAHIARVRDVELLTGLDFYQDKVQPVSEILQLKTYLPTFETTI
# Description: (§1) Binding and cross-reactivity of the molecules to the human, rhesus, and cynomolgus CD203c was initially assessed by binding ELISA. The human CD203c His-tagged recombinant protein and the rhesus monkey CD203c His-tagged recombinant protein were coated to the surface of MaxiSorp™ flat-bottom 96 well plates at a concentration of 1 μg/ml. The purified samples were titrated in 5-fold serial dilutions starting from 100 nM and allowed to bind to the coated antigens. The IgGs were detected using mouse anti-human IgG conjugated to horseradish peroxidase. Binding signals were visualized with 3,3′,5,5′-Tetramethylbenzidine Substrate Solution (TMB) and the absorbance measured at 450 nm.
# [3] = molecular target: T3, rhesus monkey CD203c His-tagged recombinant protein (rhesus monkey, UniProt F6TH66 31-874); assay: direct binding ELISA on coated recombinant rhesus CD203c
# T3 construct: also called rhesus CD203c; not shown: His tag
# T3 sequence: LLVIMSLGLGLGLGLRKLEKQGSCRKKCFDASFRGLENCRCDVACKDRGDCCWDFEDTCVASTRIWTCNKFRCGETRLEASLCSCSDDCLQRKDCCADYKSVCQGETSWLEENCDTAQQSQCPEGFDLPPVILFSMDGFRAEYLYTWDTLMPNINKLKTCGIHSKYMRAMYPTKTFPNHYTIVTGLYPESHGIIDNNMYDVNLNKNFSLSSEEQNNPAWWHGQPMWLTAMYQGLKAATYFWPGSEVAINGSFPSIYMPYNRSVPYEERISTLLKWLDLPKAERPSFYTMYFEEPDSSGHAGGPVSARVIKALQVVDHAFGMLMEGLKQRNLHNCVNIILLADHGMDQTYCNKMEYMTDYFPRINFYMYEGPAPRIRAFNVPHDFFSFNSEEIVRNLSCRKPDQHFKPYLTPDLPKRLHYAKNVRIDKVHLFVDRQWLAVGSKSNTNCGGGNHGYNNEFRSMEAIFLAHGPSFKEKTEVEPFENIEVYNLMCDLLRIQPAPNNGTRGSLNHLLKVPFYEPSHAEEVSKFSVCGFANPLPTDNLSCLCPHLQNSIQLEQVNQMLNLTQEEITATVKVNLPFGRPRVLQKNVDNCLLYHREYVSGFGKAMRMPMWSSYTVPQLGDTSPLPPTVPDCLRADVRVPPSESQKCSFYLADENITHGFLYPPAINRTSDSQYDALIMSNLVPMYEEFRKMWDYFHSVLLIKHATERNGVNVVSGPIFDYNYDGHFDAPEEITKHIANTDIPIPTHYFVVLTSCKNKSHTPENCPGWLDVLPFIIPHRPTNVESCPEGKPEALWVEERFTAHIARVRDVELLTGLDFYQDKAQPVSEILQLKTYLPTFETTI
# Description: as §1
binder,measurement,setting,value
B1,EC50,[1],98.2 nM
same,EC50 (read off the curve),[2],~7 nM
same,binding result,[3],binds
